From US20250179187A1, “ANTI PD-L2 ANTIBODY” (REJUVERON SENESCENCE THERAPEUTICS AG, priority 2022, published 2025)

Assays:
recombinant mPD-L2 = target: T1, recombinant mPD-L2 (Mus musculus, UniProt Q9WUL5); test: ELISA for mPDL2; type: binding
T1 construct: purchased Sino Biological 50804-M08H-B
T1 sequence (Q9WUL5 20-247): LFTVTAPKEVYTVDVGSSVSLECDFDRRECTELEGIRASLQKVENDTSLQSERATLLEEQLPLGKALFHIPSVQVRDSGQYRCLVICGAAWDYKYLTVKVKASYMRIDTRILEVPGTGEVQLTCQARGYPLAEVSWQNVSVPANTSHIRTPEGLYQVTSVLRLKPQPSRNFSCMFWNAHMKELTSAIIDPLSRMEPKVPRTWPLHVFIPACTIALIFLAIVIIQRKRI
Experimental: ELISA plates were coated with recombinant mPDL2 (Sino Biological, cat 50804-M08H-B, lot LC10SE0706) at a concentration of 2 micrograms/milliliter at 4° C. for 15 h. Coating was then washed two times with PBS and blocked with 0.5% bovine serum albumin (BSA)/PBS at 37° C. for one hour. Blocking was removed and appropriate antibody concentrations diluted in 0.5% BSA/PBS for 1 hour at 37° C. Plates were then washed five time in PBS and a goat anti-mouse-HRP (Jackon Immuno Research cat #115-035-071) diluted in 0.5% BSA/PBS was added and incubated for 30 minutes at 37° C. Plates were washed again five times with PBS and TMB substrate (Medicago cat #10-9405) was added for 30 minutes at 37° C. in the dark. Reaction was stopped with 1N HCl and read and optical densities read on a standard spectrophotometer plate reader at […].

PyMT spontaneous tumors = test: Spontaneous mouse PyMT breast tumor model with tumor immunostaining; type: in vivo
Experimental: Hemizygous transgenic PyMT mice were allowed to develop tumors to an average size of around 200 cubic millimeters, usually around 9 weeks, at which time treatment was initiated, with N=3-5 per treatment group. Doxorubicin (Aurovitas) was administered intraperitoneally once per week at 4 mg/kg and antibodies were administered every three days at a dose of 10 mg/kg during four weeks or 3 mg/kg where noted. Vehicle-treated animals received only vehicle solvent for doxorubicin as a no-treatment control. Tumors were measured with a standard caliper once per week. At the end of the study, tumors were resected and further analyzed by immunohistochemistry.
For the depleting study, the same treatment regimen described above was carried out but in combination with CD4 or CD8-depleting antibodies (BioXCell), administered on day −1, day 0 and weekly thereafter at a dose of 200 micrograms per animal.
For double SA-beta-galactosidase/PD-L2 staining, following resection, tumors were fixed in 2% paraformaldehyde and 0.2% glutaldehyde in PBS for 2 hours at room temperature. Samples were washed in PBS for 15 minutes then stained by standard procedures for SA-beta-galactosidase activity overnight. Following this, tumors were washed in PBS for 15 minutes, dehydrated in 70% ethanol and embedded in paraffin, sectioned, and stained for PDL2 with an anti-PDL2 antibody (Cell Signaling, D6L5A cat #49189) by standard immunohistochemistry techniques. To quantify the number of cells double positive for SA-beta-galactosidase and PDL2, 3 random fields from 2 mammary glands from each animal in each treatment group was analyzed with Image J software. Staining for CD3, CD4 and CD8 was also carried out by standard immunohistochemistry techniques on paraffin-embedded material and quantified according to pixel density using Image J software.

recombinant hPD-L2 = target: T2, recombinant hPD-L2 (Homo sapiens, UniProt Q9BQ51); test: ELISA with recombinant hPD-L2; type: binding; details: compared to a panel of commercially available anti-PD-L2 antibodies
T2 sequence (Q9BQ51 20-273): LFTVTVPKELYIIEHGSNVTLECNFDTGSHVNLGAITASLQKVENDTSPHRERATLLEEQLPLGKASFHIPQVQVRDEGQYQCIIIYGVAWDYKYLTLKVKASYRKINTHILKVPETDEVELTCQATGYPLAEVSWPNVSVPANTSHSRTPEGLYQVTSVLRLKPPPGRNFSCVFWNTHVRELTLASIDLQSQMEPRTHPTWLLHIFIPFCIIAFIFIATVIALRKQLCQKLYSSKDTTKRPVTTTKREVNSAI

hPD-L2/hPD-1 interaction = target: T3, hPD-L2/hPD-1 interaction (Homo sapiens, UniProt Q9BQ51); test: Reporter assay, blocking of cellular hPD-L2/hPD-1 interaction (Jurkat hPD-1 / CHO-K1 hPD-L2 co-culture); type: cell-based; details: reporter in hPD-1 Jurkat cells co-cultured with hPD-L2 CHO-K1 cells; compared to MIH-18, 24F.10C12 and D7U86
T3 construct: host or cells: CHO-K1 (hPD-L2) co-cultured with Jurkat PD-1 effector cells
T3 sequence (Q9BQ51 20-273): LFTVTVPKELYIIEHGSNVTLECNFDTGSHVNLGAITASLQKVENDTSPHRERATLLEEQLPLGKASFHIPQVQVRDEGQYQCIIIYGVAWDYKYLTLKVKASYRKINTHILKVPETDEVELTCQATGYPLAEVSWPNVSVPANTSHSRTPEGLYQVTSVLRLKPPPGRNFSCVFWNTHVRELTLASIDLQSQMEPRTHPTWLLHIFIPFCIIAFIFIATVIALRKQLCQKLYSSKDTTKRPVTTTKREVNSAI
Experimental: Cellular blocking activity of antibodies according to the present invention was assessed by with the Promega (Southampton, Hampshire, UK) PD-1/PD-L2 blockade bioassay (Promega, Cat No. CS187131-1), which is a bioluminescent cell-based assay that is used to measure the potency and stability of antibodies and other biologics designed to block the hPD-1/PD-L2 interaction. In brief, CHO-K1 cells overexpressing hPD-L2 were thawed and plated in a 96 well plate. The following day, appropriate concentrations of antibodies were added to the wells. Jurkat PD-1 effector cells, expressing a luminescent NFAT reporter for cell activation, were subsequently thawed and added to the wells immediately. The co-culture was incubated for 6 hours and read using the SpectraMax i3× reader (Molecular Devices, Wokingham, UK). GraphPad Prism 9.0 (GraphPad Software, La Jolla, Ca) was used for the data analysis and data was plotted using a four-parameter non-linear regression model.

PyMT mammary tumor = test: Implantable mouse PyMT mammary tumor model; type: in vivo; details: in combination with doxorubicin, up to day 49, compared to TY-25 in combination with doxorubicin
Experimental: 1 million PyMT cells were injected in PBS into the right mammary fat pad number 4, with an N=10 animals per treatment group. When tumors reached an average of 100 millimeter cubed on day 17 post-injection, treatment regimens were initiated. All mice were sorted into study groups based on caliper estimation of tumor burden. The mice were distributed to ensure that the mean tumor burden for all groups was within 10% of the overall mean tumor burden for the study population. The first dose of doxorubicin was administered intraperitoneally at 4 mg/kg, as well as the antibodies, all at doses of 10 mg/kg intraperitoneally, on day 17 post-implantation. Doxorubicin (MWI Animal Health, BJ0080A/NA) was administered once more on day 24 and antibodies on days 20, 24, 27, 31, 34, 38, 41. The following commercial antibodies were used in the study: anti-mouse PD-L2 (clone TY-25, Bio X Cell lot/cat 0411901. Vehicle-treated animals received only vehicle solvent for doxorubicin as a no-treatment control. Tumor volume was measured at least 2-3 times per week throughout the study with a standard caliper.

cross-reactivity to recombinant mPD-L2 (recombinant mPD-L2): shows cross-reactivity | binding activity against recombinant hPD-L2 (recombinant hPD-L2): superior binding activity | blocking activity against cellular hPD-L2/hPD-1 interaction (hPD-L2/hPD-1 interaction): superior blocking activities
B1: VH0/VK0-mIgG1: parental murine anti-PD-L2 antibody on mIgG1 backbone; SEQ ID NO: 21/SEQ ID NO: 22 (antibody, V domains shown)
VH: QVQLQQSGAELVRPGTSVKVSCKASGYAFSNYFIEWVKQRPGQGLEWIGLNIPGSGGSNYAEKFKGKATLTADKSSSTAYMQLSSLTSEDSAVYFCARRRLPPDWYFDVWGTGTTVTVSS
VL: DVVMTQTPLSLPVSLGDQASISCRSSQSLVHSDGNTYLHWYLQKPGQSPKLLIYKVSNRFSGVPDRFSGSGSGTDFTLKISRVEAEDLGVYFCSQSTHVPWTFGGGTKLEIK
final tumor volume (PyMT spontaneous tumors; 3 mg/kg antibody with doxorubicin over four weeks, compared to doxorubicin alone or TY-25 and doxorubicin): greater reduction in final tumor volume | tumor growth (PyMT spontaneous tumors; combination with doxorubicin vs doxorubicin and mIgG1 control): inhibited tumor growth more | relative numbers of CD3+, CD8+ and CD4+ cells in PyMT spontaneous tumors (PyMT spontaneous tumors; combination with doxorubicin, compared to vehicle or doxorubicin-only treated mice (p<0.05)): increased relative numbers | inhibition of tumor progression under depleting antibodies against CD4+ cells (PyMT spontaneous tumors; doxorubicin and antibody plus CD4-depleting antibodies): only slightly relieved this inhibition | inhibition of tumor progression under depleting antibodies against CD8+ cells (PyMT spontaneous tumors; doxorubicin and antibody plus CD8-depleting antibodies): relieve the inhibition | cells double-positive for PD-L2 and SA-βGal in PyMT tumors (PyMT spontaneous tumors; immunohistochemistry, antibody co-treated with doxorubicin vs Vehicle or Doxorubicin+mIgG1 (p<0.05)): significantly lower | progression of tumors (PyMT mammary tumor): smaller progression of tumors
